The values below come from US20230250170A1 (Regeneron, published 2023).

The target of experiment [1] is T1, dog NPR1 extracellular domain expressed with a C-terminal myc-myc-hexahistidine (dog).
T1 chain: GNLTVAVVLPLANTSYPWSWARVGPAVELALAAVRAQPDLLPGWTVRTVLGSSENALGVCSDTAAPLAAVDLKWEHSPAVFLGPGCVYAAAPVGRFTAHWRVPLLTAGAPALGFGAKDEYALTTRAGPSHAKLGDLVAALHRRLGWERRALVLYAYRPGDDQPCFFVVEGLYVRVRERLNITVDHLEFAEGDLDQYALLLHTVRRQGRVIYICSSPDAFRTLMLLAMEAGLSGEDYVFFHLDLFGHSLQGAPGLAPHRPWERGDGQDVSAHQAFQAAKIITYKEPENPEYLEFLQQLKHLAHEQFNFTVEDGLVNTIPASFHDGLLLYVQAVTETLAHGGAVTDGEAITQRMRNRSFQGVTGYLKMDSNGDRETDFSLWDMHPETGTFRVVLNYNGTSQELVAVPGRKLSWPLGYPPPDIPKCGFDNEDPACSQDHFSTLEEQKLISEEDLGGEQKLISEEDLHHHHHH
As to the kind of experiment: SPR Biacore 8K, mAb captured via anti-hFc, 25 C. The procedure:
(§1) The equilibrium dissociation constant (KD) for different NPR1 reagents binding to purified anti-NPR1 monoclonal antibodies (mAbs) were determined using a real-time surface plasmon resonance (SPR) based Biacore 8k biosensor. All binding studies were performed in 10 mM HEPES, 150 mM NaCl, 3 mM EDTA, and 0.05% v/v Surfactant P20, pH 7.4 (HBS-EP) running buffer at 25° C. and 37° C. The Biacore CM5 sensor chip surface was first derivatized by amine coupling with anti-human Fc specific antibody to capture anti-NPR1 mAbs. Binding studies were performed on human NPR1 extracellular domain expressed with a C-terminal myc-myc-hexahistidine (hNPR1-MMH; SEQ ID NO:74), monkey NPR1 extracellular domain expressed with a C-terminal myc-myc-hexahistidine (mfNPR1-MMH; SEQ ID NO:75), mouse NPR1 extracellular domain expressed with a C-terminal myc-myc-hexahistidine (mNPR1-MMH; SEQ ID NO:76), dog NPR1 extracellular domain expressed with a C-terminal myc-myc-hexahistidine (dog_NPR1-MMH; SEQ ID NO:77), pig NPR1 extracellular domain expressed with a C-terminal myc-myc-hexahistidine (pig_NPR1-MMH; SEQ ID NO:78), and hNPR1-MMH+10×hANP.
(§2) Different concentrations (40 nM-0.625 nM, 4-fold serial dilutions) of hNPR1-MMH, mfNPR1-MMH, hNPR1-MMH in the presence of 10-fold concentration of hANP, or a fixed concentration (40 nM) of mNPR1-MMH, dog_NPR1-MMH, pig_NPR1-MMH were prepared in HBS-EP running buffer, and then injected for 150 sec at a flow rate of 30 μL/min, while the dissociation of mAb bound different NPR1 reagents was monitored for 30 minutes in HBS-EP running buffer. At the end of each cycle, the anti-NPR1 mAb capture surface was regenerated using a 12 sec injection of 10 mM phosphoric acid. The association rate (ka) and dissociation rate (kd) were determined by fitting the real-time binding sensorgrams to a 1:1 binding model with mass transport limitation using Biacore insight evaluation software. Binding dissociation equilibrium constant (KD) and dissociative half-life (t½) were calculated from the kinetic rates as: […]
In general terms: In SPR one partner is held on a chip, and binding of the other changes the refractive index at the surface.

In experiment [2] the target is T2, mouse NPR1 extracellular domain expressed with a C-terminal myc-myc-hexahistidine (mouse, UniProt P18293 29-469).
T2 construct: also called mNPR1-MMH
As to the kind of experiment: SPR Biacore 8K, mAb captured via anti-hFc, 25 C. The procedure:
as §1, §2

Experiment [3] addresses T3, pig NPR1 extracellular domain expressed with a C-terminal myc-myc-hexahistidine (pig).
T3 chain: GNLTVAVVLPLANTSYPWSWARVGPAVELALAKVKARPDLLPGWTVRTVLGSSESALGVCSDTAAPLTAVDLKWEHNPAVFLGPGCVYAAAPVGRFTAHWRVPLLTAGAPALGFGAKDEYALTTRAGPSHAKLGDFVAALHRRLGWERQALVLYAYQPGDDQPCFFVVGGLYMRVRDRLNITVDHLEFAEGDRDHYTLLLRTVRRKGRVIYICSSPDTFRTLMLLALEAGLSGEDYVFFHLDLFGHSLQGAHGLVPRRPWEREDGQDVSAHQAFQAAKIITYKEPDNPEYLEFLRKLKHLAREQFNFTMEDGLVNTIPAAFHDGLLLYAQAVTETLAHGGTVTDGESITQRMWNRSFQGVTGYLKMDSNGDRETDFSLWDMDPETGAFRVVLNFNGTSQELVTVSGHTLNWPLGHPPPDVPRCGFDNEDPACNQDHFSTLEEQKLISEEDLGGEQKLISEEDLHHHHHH
As to the kind of experiment: SPR Biacore 8K, mAb captured via anti-hFc, 25 C. The procedure: as §1, §2

For experiment [4], the target named is T4, monkey (Macaca fascicularis) NPR1 on HEK293/mfNPR1 cells (monkey (Macaca fascicularis)).
T4 construct: whole, on cells; No ligand added
As to the kind of experiment: ECL cell-binding immunoassay (MSD), HEK293/mfNPR1, no ligand added. The procedure:
(§3) Cultures of the cell lines described above were rinsed once in 1×PBS buffer without Ca²⁺/Mg²⁺ and incubated for 10 minutes at 37° C. with Enzyme Free Cell Dissociation Solution to detach cells from the flask. The collected cell pellets were washed once with and resuspended in 1×PBS with Ca²⁺/Mg²⁺ and then cells were counted with a Cellometer™ Auto T4 cell counter (Nexcelom Bioscience, Lawrence, Mass.). Approximately 2.0×10⁴ cells per well were seeded onto 96-well carbon electrode plates (Meso Scale Diagnostics, Rockville, Md.) and incubated for 1 hour at 37° C. Nonspecific binding sites were blocked using 2% BSA (w/v) in 1×PBS containing Ca²⁺/Mg²⁺ for 1 h at room temperature. Subsequently, HEK293/hNPR1 and HEK293/mfNPR1 cells were incubated for 0.5 hour at room temperature with 10 nM hANP (Tocris, Minneapolis, Minn.), 100 nM hBNP (Tocris, Minneapolis, Minn.), or sample dilution buffer alone, while HEK293 cells were treated with sample dilution buffer only. Without washing, serial dilutions of anti-NPR1, Comparator 1 or the isotype control antibody, ranging from 1.7 pM to 100 nM, or buffer containing no antibody were added to the cells followed by 1 hour incubation at room temperature. Plates were then washed to remove unbound antibodies, hANP, and hBNP using an AquaMax2000 plate washer with a cell washing head (MDS Analytical Technologies, Sunnyvale, Calif.). The plate-bound antibodies were detected with a SULFO-TAG™-conjugated polyclonal goat anti-human IgG antibody specific for heavy and light chains (Jackson Immunoresearch, West Grove, Pa.) that was incubated with the cells for 1 hour at room temperature.
(§4) After washes, plates were developed with Read Buffer (Meso Scale Diagnostics, Rockville, Md.) according to manufacturer's recommended procedure and luminescent signals were recorded with a SECTOR Imager 600 (Meso Scale Diagnostics, Rockville, Md.). The binding signals in a unit of RLU were analyzed as a function of the antibody concentration and data were fitted with a sigmoidal (four-parameter logistic) dose-response model using R statistical package (open source).

Experiment [5] addresses T1, dog NPR1 extracellular domain expressed …. As to the kind of experiment: SPR Biacore 8K, mAb captured via anti-hFc, 37 C. On the procedure:
as §1, §2

Experiment [6] addresses T2, mouse NPR1 extracellular domain …. As to the kind of experiment: SPR Biacore 8K, mAb captured via anti-hFc, 37 C. The procedure:
as §1, §2
Target sequence in this assay (P18293 other isoform, or with tags, fused parts or gaps): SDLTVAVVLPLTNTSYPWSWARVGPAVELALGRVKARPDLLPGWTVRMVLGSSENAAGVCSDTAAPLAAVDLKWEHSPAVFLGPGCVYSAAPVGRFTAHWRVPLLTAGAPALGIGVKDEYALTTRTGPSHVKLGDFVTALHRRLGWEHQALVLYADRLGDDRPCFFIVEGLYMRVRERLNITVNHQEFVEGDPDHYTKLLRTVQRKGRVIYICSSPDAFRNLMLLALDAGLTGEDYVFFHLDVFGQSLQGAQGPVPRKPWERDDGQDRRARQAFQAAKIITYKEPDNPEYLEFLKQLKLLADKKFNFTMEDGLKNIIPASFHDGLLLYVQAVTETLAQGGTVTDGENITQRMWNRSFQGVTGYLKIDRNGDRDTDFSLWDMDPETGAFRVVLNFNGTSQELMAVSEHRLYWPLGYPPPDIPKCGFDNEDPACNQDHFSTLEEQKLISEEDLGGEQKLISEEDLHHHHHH

Experiment [7] deals with T3, pig NPR1 extracellular domain expressed …. The experiment is described as follows: SPR Biacore 8K, mAb captured via anti-hFc, 37 C. The procedure:
as §1, §2

The target in experiment [8] is T5, monkey NPR1 on HEK293/mfNPR1 cells in the presence of 100 nM hBNP (monkey (Macaca fascicularis); human).
T5 construct: also called HEK293/mfNPR1 +100 nM hBNP
As to the kind of experiment: ECL cell-binding immunoassay (MSD), HEK293/mfNPR1, +100 nM hBNP. The procedure: as §3, §4

The target in experiment [9] is T6, monkey NPR1 on HEK293/mfNPR1 cells in the presence of 10 nM hANP (monkey (Macaca fascicularis); human).
T6 construct: also called HEK293/mfNPR1 +10 nM hANP
The experiment is described as follows: ECL cell-binding immunoassay (MSD), HEK293/mfNPR1, +10 nM hANP. On the procedure:
as §3, §4

Broadly, the Kd is the concentration at which binding is half-saturated. As a reminder, the koff is the rate constant with which the complex falls apart. Broadly, the kon is the second-order rate constant of association. A word on the t½: it is the time in which the quantity being followed falls by half. The term EC50 denotes the concentration needed to bring the measured effect to its halfway point.

T6 sequence (P01160 124-151): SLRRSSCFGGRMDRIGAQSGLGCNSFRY
T5 sequence (P16860 103-134): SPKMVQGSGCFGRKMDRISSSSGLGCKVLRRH

B1: REGN7548 (antibody, human IgG4 S228P, kappa, V domains shown)
VH: QVQLVQSGAEVKKPGASVKVSCKASGYTFTSYYIHWVRQAPGQGLEWMGIISPSDGYTSYAQNFQGRVTMTRDTSTNTVYMDLSSLRSEDTAMFYCARNDPLTTVALDYWGQGTLVTVSS
VL: AIQMTQSPSSLSASVGDRVTITCRASQGIRYDLGWFQQKPGKAPKLLIHAASSLQSGVPSRFSGSGSGTDFTLTISSLQPEDFATYYCLQDYNYPFTFGQGTKLEIKR
notes: also called mAb38090
Turning to B1, the “40 nM Ag Bound (RU)” value in experiment [1] was 0 RU; in experiment [2] it was 0 RU; in experiment [3], 11 RU; in experiment [5], 0 RU; in experiment [6], 0 RU; in experiment [7] it was 14 RU. Besides, the binding result in experiment [1] and in [2] was “no binding (tested: 40 nM)” each time. The values for the Kd in experiment [3] and in [7] were 35.8 nM and 42.1 nM, respectively. Also, the koff amounted to 0.00427 s⁻¹ in experiment [3] and 0.00927 s⁻¹ in experiment [7]. The kon amounted to 119000 M⁻¹ s⁻¹ in experiment [3] and 220000 M⁻¹ s⁻¹ in experiment [7]. Moreover, the t½ in [3] was 2.7 min; in [7], 1.2 min. Besides, the EC50 in experiment [4] was 0.56 nM; in [8] it was 0.56 nM; in experiment [9], 1.2 nM.

B2: REGN7541 (antibody, human IgG4 S228P, kappa, V domains shown)
VH: EVQLVESGGGLVQPGGSLRLSCAASGFTFSSYAMSWVRQAPGKGLEWVSTISGSGTNTYYADSVKGRFTISNDNSKNTLYLQMNSLRAEDTAVYYCANYDILTGHSFEYWGQGTLVTVSS
VL: AIQMTQSPSSLSASVGDRVTITCRASQGIRNDLGWYQQKPGKAPELLIYAASRLPSGVPLRFSGSGSGTDFTLTISSLQPEDVATYYCLQDYNYPFTFGPGTKVDIKR
notes: also called mAb38067
With B2, the “40 nM Ag Bound (RU)” value in experiment [1], in [2], in [3], in experiment [5], in experiment [6] and in [7] was 0 RU each time. The binding result in [1], in [2] and in experiment [7] was “no binding (tested: 40 nM)” each time. The EC50 in experiment [4] came out at 1.4 nM; in [8], 0.92 nM; in experiment [9], 2.9 nM.

B3: REGN7544 (antibody, human IgG4 S228P, kappa, V domains shown)
VH: EVQLVESGGGLVQPGGSLRLSCAASGFSFVSYVMGWVRQAPGKGLEWVSSISGSLTNTYYADPVKGRFTISRDNSKNTLYLQMNSLRAEDTAAYYCVTYDILTGHLFDYWGQGTLVTVSS
VL: AIQMTQSPSSLSASVGDRVTITCRSSQGIRNDFGWYQQKPGKAPKLLIYAASRLQSGVPSRFSGSGSGTDFTLTINNLQPEDFATYYCLQDYTYPFTFGPGTKVDIKR
notes: also called mAb38072
Turning to B3, the “40 nM Ag Bound (RU)” value in [1] came to 0 RU; in [2], 0 RU; in experiment [3], 2 RU; in experiment [5], 0 RU; in [6], 0 RU; in experiment [7] it was 5 RU. The binding result in experiment [1] and in experiment [2] was “no binding (tested: 40 nM)” throughout. Also, the values for the Kd in [3] and in experiment [7] were 122 nM and 98.1 nM, respectively. Besides, the koff in [3] is 0.00679 s⁻¹; in experiment [7], 0.00947 s⁻¹. Also, the figures for the kon in [3] and in experiment [7] were 55800 M⁻¹ s⁻¹ and 96500 M⁻¹ s⁻¹, respectively. Moreover, the t½ is 1.7 min in [3] and 1.2 min in experiment [7]. In addition, the EC50 in experiment [4] worked out at 1.7 nM; in experiment [8] it was 1.7 nM; in experiment [9] it was 4.2 nM.

B4: H4H22034 (antibody, human IgG4 S228P, kappa, V domains shown)
VH: EVQLLESGGDLVQPGGSLRLSCAASGFTFSDYAMIWVRQTPGKGLEWVSGISGGGGSTDYADSVKGRFTTSRDNVKNAMYLQMNSLRTEDTAVYYCAREDQLPSYHNYYGMDVWGQGTTVTVSS
VL: DIQMTQSPSSVSASVGDRVTITCRASQGINNYLAWFQQKPGKAPKSLIYGASSLQSGVPSKFSGSRSGIDFTLTISSLQPEDFATYYCQQYNSYPYTFGQGTKLEIKR
notes: also called H4H22034N; mAb22034
In the case of B4, the “40 nM Ag Bound (RU)” value in experiment [1], in [2], in experiment [3], in experiment [5], in experiment [6] and in experiment [7] was 0 RU throughout. Further, the binding result in experiment [1], in [2] and in experiment [7] was “no binding (tested: 40 nM)” throughout. Further, the EC50 in experiment [4] amounted to 0.33 nM; in experiment [8], 0.42 nM; in [9], 0.67 nM.
